These are literature values, as cited in publication PMC9760430, “A stapled chromogranin A-derived peptide homes in on tumors that express αvβ6 or αvβ8 integrins” (International Journal of Biological Sciences, 2023).

pKi: −log10 of the molar value.

The target of data set [1] is integrin αvβ8 (Homo sapiens) (UniProt P06756). Conditions: cited from earlier work.
For data set [2], the target named is integrin αvβ6 (Homo sapiens) (UniProt P06756). Conditions: cited from earlier work.
integrin αvβ6 (Homo sapiens), sequence (P06756 31-992, chain 1 of 2): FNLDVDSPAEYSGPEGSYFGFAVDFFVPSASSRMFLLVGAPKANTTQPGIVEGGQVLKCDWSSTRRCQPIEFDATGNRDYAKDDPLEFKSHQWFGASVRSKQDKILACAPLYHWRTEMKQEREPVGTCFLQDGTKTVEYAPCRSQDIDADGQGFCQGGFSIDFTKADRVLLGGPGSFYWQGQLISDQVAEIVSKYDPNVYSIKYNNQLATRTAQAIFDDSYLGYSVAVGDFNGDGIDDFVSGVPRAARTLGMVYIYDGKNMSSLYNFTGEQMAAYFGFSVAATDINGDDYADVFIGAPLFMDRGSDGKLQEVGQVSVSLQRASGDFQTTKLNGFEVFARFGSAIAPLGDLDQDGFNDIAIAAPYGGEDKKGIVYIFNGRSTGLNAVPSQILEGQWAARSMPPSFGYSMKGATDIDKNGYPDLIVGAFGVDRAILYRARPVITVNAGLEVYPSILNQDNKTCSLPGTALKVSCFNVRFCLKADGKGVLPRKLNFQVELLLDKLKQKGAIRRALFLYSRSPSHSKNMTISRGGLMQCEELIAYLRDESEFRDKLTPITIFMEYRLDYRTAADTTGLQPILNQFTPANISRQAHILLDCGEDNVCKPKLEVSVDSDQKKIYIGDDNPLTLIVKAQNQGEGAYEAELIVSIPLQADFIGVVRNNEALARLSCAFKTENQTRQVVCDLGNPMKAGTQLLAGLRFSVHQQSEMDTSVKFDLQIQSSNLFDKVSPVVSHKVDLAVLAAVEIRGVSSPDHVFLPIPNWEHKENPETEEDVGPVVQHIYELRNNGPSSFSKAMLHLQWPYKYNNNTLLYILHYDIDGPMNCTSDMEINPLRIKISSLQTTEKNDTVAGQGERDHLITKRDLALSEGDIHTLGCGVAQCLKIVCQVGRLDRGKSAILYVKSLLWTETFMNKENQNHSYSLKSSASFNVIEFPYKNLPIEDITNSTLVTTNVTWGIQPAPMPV
integrin αvβ6 (Homo sapiens), sequence (P18564 22-709, chain 2 of 2, further chain): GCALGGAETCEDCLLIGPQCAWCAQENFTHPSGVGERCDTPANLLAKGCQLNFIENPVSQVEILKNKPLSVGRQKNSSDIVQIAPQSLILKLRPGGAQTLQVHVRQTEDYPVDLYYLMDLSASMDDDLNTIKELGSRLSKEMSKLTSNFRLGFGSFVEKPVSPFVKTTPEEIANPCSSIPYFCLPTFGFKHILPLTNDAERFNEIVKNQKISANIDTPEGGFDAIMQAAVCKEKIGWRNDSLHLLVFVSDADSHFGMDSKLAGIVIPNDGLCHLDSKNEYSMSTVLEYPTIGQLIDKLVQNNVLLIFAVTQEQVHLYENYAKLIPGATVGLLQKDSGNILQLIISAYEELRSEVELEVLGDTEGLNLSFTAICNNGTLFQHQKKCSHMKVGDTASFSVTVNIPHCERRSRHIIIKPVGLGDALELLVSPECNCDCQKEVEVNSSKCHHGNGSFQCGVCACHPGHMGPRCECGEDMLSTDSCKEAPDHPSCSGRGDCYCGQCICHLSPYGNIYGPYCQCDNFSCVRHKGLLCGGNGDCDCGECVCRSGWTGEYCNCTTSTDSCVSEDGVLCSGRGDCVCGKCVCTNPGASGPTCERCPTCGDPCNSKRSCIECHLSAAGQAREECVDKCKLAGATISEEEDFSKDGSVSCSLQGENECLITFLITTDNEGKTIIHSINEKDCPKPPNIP

chromogranin A-derived peptide 5, sequence (P10645 57-81): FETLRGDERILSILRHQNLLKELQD
integrin αvβ8 (Homo sapiens), sequence (P06756 31-992, chain 1 of 2): as the sequence (P06756 31-992, chain 1 of 2) above
integrin αvβ8 (Homo sapiens), sequence (P26012 43-684, chain 2 of 2, further chain): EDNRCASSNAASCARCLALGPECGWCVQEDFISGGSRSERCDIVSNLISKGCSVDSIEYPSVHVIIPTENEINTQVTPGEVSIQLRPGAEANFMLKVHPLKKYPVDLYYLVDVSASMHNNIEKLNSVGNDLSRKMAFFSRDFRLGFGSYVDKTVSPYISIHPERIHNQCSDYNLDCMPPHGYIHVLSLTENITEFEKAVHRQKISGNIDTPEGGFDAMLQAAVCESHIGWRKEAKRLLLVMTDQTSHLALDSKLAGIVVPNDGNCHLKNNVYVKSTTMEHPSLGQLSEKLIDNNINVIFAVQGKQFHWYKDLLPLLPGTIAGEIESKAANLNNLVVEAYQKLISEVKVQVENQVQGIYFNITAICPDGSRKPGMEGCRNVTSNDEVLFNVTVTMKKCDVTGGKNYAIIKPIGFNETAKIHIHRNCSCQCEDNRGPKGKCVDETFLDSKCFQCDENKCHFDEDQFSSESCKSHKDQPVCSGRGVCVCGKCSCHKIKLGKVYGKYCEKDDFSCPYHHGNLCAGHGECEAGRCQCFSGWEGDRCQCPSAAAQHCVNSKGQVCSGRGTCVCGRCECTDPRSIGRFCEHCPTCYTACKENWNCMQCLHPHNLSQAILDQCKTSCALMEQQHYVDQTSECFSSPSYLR

One may read the pKi as the Ki on a negative log10 scale, so that one unit is a factor of ten. Take “chromogranin A-derived peptide 5 (from UniProt P10645)”: the pKi was 8.49 in data set [1] and 9.22 in data set [2].
